The subject of series [1] is COX-2 induction in Caco-2 cells. Kind of series: COX-2 induction by CG53135 in presence of proteosome inhibitor. In kind it is cell-based, human. As to the method: FIG. 18. Effect of NFkB on activation of CG53135 and stimulation of COX-2 in intestinal epithelial cells. NFkB promoter activity was assayed in HT-29 and Caco2 cell lines in the presence of CG53135-01 E. coli purified product.
ITF promoter activity in HT-29 cells was assayed. […] Thus NF-kB may not have a role inducing COX-2 expression in the presence of CG53135.

Series [2] has as its system mesenchymal and epithelial cells. The experiment in a line: Proliferation summary for variants. In kind it is cell-based. The conditions noted are these: in vitro. As to the method:
(§1) Experiments were performed to evaluate the proliferative response of representative cell types to CG53135, e.g., a full-length tagged variant (CG53135-01), a deletion variant (CG53135-02), and a full-length codon-optimized untagged variant (CG53135-05).
(§2) CG53135-02 (batch 1 and 13) was also used in these experiments. Protein was expressed in E. coli, BLR (DE3) (Novagen), transformed with the deletion variant CG53135-02 inserted into a pET24a vector (Novagen). A research cell bank (RCB) was produced and cell paste containing CG53135-02 was produced by fermentation of cells originating from the RCB. Cell membranes were disrupted by high-pressure homogenization, and lysate was clarified by centrifugation. CG53135-02 was purified by ion exchange chromatography. The final protein fraction was dialyzed against the formulation buffer (100 mM citrate, 1 mM ethylenediaminetetraacetic acid (EDTA), and 1 M L-arginine).
(§3) CG53135-05, DEV10, which were also used in these experiments, was prepared by Cambrex Biosciences (Hopkinton, Mass.) according to Process 1 as described in Section 6.18.1, infra.
(§4) BrdU Incorporation: proliferative activity was measured by treatment of serum-starved cultured cells with a given agent and measurement of BrdU incorporation during DNA synthesis. Cells were cultured in respective manufacturer recommended basal growth medium supplemented with 10% fetal bovine serum or 10% calf serum as per manufacturer recommendations. Cells were grown in 96-well plates to confluence at 37° C. in 10% CO2/air (to subconfluence at 5% CO2 for dedifferentiated chondrocytes and NHOst). Cells were then starved in respective basal growth medium for 24-72 hours. CG53135 protein purified from E. coli or pCEP4/Sec or pCEP4/Sec-FGF 20× enriched conditioned medium was added (10 μL/100 μL of culture) for 18 hours. BrdU (10 μM final concentration) was then added and incubated with the cells for 5 hours. BrdU incorporation was assayed according to the manufacturer's specifications (Roche Molecular Biochemicals, Indianapolis, Ind.).
(§5) The above described experiments were also performed using CG53135-02 and CG53135-05 protein products, and the results are summarized in the Conclusion section below.

For a further series, the system named is endothelial cells. The experiment in a line: Proliferation summary for variants. The series is classed as cell-based. The conditions noted are these: in vitro. The procedure: as §1, §2, §3, §4, §5
Series [3] deals with NIH 3T3 murine embryonic fibroblast cells. The experiment in a line: BrdU incorporation bioassay of RP-HPLC peak fractions. The series is classed as cell-based, mouse. The conditions noted are these: for PI200: concentration giving BrdU incorporation at 2 times the background, serum-starved NIH 3T3, 18 hours; for induction of DNA synthesis / activity in proliferation assays: BrdU incorporation. The procedure:
The biological activity of CG53135-05 related species collected from the 4 peaks identified by LC and MS was measured by treatment of serum-starved cultured NIH 3T3 murine embryonic fibroblast cells with various doses of the isolated CG53135-05 related species and measurement of incorporation of bromodeoxyuridine (BrdU) during DNA synthesis. For this assay, cells were cultured in Dulbecco's modified Eagle's medium supplemented with 10% fetal bovine serum. Cells were grown in 96-well plates to confluence at 37° C. in 10% CO2/air and then starved in Dulbecco's modified Eagle's medium for 24-72 hours. CG53135-05-related species were added and incubated for 18 hours at 37° C. in 10% CO2/air. BrdU ([…]) was added and incubated with the cells for 2 hours at 37° C. in 10% CO2/air. Incorporation of BrdU was measured by enzyme-linked immunosorbent assay according to the manufacturer's specifications (Roche Molecular Biochemicals, Indianapolis, Ind.).
Peak 4 was not included in this assay since insufficient material was collected (Peak 4 is less than 3% of the total peak area for CG53135-05).

A further series deals with NIH 3T3 cells. Kind of series: BrdU incorporation, truncated vs full length FGF-20 conditioned medium. The series is classed as cell-based, mouse. The conditions noted are these: 10 ng/mL. The procedure: NIH 3T3 mouse fibroblasts were serum-starved, incubated with the indicated factor for 18 hours, and analyzed by a BrdU incorporation assay.
A vector expressing amino acids 24-211 of FGF-20, referred to as CG53135-17 (SEQ ID NOs:31 and 32), was prepared. The incorporation of BrdU by NIH 3T3 cells treated with conditioned medium obtained using the vector incorporating this truncated form was compared to the incorporation in response to treatment with conditioned medium using a vector encoding full length FGF-20. This experiment was carried out as described above.
(In general: Dividing cells build labelled thymidine or BrdU into new DNA.)

Series [4] concerns soluble FGF receptors (FGFRs). The experiment in a line: Receptor binding specificity: control growth factors with soluble FGFRs. In kind it is cell-based. The conditions noted are these: all soluble FGFRs under analysis. The procedure:
NIH 3T3 cells were serum-starved, incubated with the indicated growth factor (square=PDGF-BB; triangle=aFGF; circle=FGF-CX) either alone or together with the indicated soluble FGFR, and analyzed by a BrdU incorporation assay. Experiments were performed in triplicate and are represented as the percent BrdU increase in incorporation of BrdU relative to cells receiving the growth factor alone.
To determine the receptor binding specificity of FGF-20, we examined the effect of soluble FGF receptors (FGFRs) on the induction of DNA synthesis in NIH 3T3 cells by recombinant FGF-20. Four receptors have been identified to date (Klint P and Claesson-Welsh L. Front. Biosci., 4: 165-177, 1999; Xu X, et al. Cell Tissue Res., 296: 33-43, 1999). Soluble receptors for FGFR1β(IIIc), FGFR2a(IIIb), FGFR2β(IIIb), FGFR2a(IIIc), FGFR3a(IIIc) and FGFR4 were utilized.

Series [5] can be described thus: Solubility of protein in formulation buffers. The series is classed as physicochemical. The conditions noted are these: for Solubility of Process 2 protein, Arginine Sulfate vs Arginine Phosphate: Batches #K, #J. The procedure:
Four unexpected properties of CG53135 were discovered and used to develop the new formulation: (1) high concentration of arginine, >0.4 M, increases the solubility to >30 mg/mL; (2) the use of sulfate salt of arginine increases the solubility by at least 2-6 folds; (3) the optimal concentration of sodium phosphate as a buffering salt is 50 mM, with a solubility of at least 1-2 fold increase in comparison with concentrations at 25, 75, and 100 mM; and (4) adding a surfactant during the diafiltration/ultrafiltration step minimizes the formation of aggregates. In development the lyophilized formulation, each component of the new formulation was evaluated for solubility individually. CG53135-05 was precipitated using the precipitate buffer (50 mM NaPi, 5 mM EDTA, 1 M L-Arginine HCl, 2.5 M (NH4)2SO4). The precipitate was washed with 25 mM sodium phosphate buffer at pH 6.5 to remove the residual arginine and ammonium sulfate. The following are examples of data.

A short description of series [6]: Turbidity (aggregates) after ultrafiltration/diafiltration. In kind it is physicochemical. As to the method: The experiment was conducted by performing the ultrafiltration/diafiltration at 2.5 mg/mL CG53135-05 in 0.2M arginine and 0.05 M sodium phosphate buffer at pH 7.0. After exchanging with 7 volumes of the final buffer (0.5M arginine and 0.05 M sodium phosphate buffer at pH 7.0), the diafiltrate is concentrated to ˜20 mg/mL. The diafiltrate is then diluted with the final buffer to ˜12.5 mg/mL and lyophilized. Polysorbate 80 is added either before or after the diafiltration to a final concentration of 0.01%.
All formulation contains 0.5 M arginine, 0.05 M sodium phosphate monobasic, and 0.01% polysorbate 80.

Values joined by “and” are separate entries in the source; they are usually repeats but may differ in a detail not shown here. Equal values may be shown once. Marks after values point to notes of the source that are not given here. Residues, ends and D or L forms follow the SMILES beside them. *: point of attachment. Cbz = O=C(OCc1ccccc1)*

For the compound `CC(C)C[C@@H](C=O)NC(=O)[C@H](CC(C)C)NC(=O)[C@H](CC(C)C)NC(=O)OCc1ccccc1` [MG132] (Cbz-Leu-Leu-Leu-aldehyde), the “block of COX-2 induction by CG53135” value in series [1] is recorded as “does not block COX-2 induction”.

For the compound “CG53135-02: Codon optimized, amino acids 2-54 of SEQ ID NO: 2 removed; SEQ ID NOs 3 and 4”, in series [2], the “proliferation of mesenchymal and epithelial cells” value was “induce proliferation”. For the same compound, the “proliferation of endothelial cells” value in the series with endothelial cells is given as “induces proliferation”.

The compound “CG53135-05 (DEV 10): Process 1 reference standard of CG53135-05 E. coli purified product” came in with a PI200 in series [3] of 1.0 ng/mL.

In the case of “CG53135-17: CG53135-05 minus first 23 amino acids at the N-terminus (amino acids 24-211 of FGF-20)”, the “activity (BrdU incorporation) at lowest concentration tested” value with NIH 3T3 cells is recorded as “retains high activity”.

On to PDGF-BB: control growth factor, for which the “effect of soluble receptor reagents on induction of DNA synthesis by control factor” value in series [4] was “None of the soluble receptor reagents interfered”.

In the case of “Peak 2: RP-HPLC peak at 27.3 min: CG53135-13 (residues 3-211)”, in series [3], the “induction of DNA synthesis / activity in proliferation assays” value is listed as “dose-dependent manner” and the PI200 is recorded as 11 ng/mL.

On to “Peak 3: RP-HPLC peak at 28.5 min: CG53135-05 (residues 1-211)”, for which, in series [3], the “induction of DNA synthesis / activity in proliferation assays” value is on record as “dose-dependent manner” and the PI200 was found to be 8.6 ng/mL.

Regarding “Process 2 protein: protein product (CG53135-05) produced by the improved production process, Process 2”, the “Solubility of Process 2 protein” value in series [5] (Arginine 0.05 M, Batches #1-#3) is 0.7 mg/mL and 0.6 mg/mL and 0.5 mg/mL; in series [5] (Arginine 0.15 M, Batches #1-#3) it was 2.2 mg/mL and 1.6 mg/mL; in series [5] (Arginine 0.20 M, Batches #1-#3) it was 3.0 mg/mL and 4.7 mg/mL and 4.3 mg/mL; in series [5] (Arginine 0.30 M, Batch #4), 5.8 mg/mL; in series [5] (Arginine 0.35 M, Batch #4) it was 10.1 mg/mL; in series [5] (Arginine 0.40 M, Batch #4) it was 9.8 mg/mL. Also, the “Solubility of Process 2 protein” value is 32.3 mg/mL in series [5] (Arginine 0.45 M, Batch #4); 23.8* mg/mL and 37 mg/mL in series [5] (Arginine 0.50 M, Batch #4 (not sufficient protein to be dissolved) and #5); 4.01 mg/mL and 2.4 mg/mL and 2.6 mg/mL and 3.59 mg/mL in series [5] (sodium phosphate monobasic 25 mM, 0.2 M arginine, Batches #A-#E); 5.47 mg/mL and 4.7 mg/mL and 3.3 mg/mL and 4.3 mg/mL and 4.81 mg/mL in series [5] (sodium phosphate monobasic 50 mM, 0.2 M arginine, Batches #A-#E); 4.06 mg/mL and 2.5 mg/mL and 2.6 mg/mL and 3.0 mg/mL and 2.38 mg/mL in series [5] (sodium phosphate monobasic 75 mM, 0.2 M arginine, Batches #A-#E); 3.78 mg/mL and 2.8 mg/mL and 2.4 mg/mL and 2.9 mg/mL and 2.47 mg/mL in series [5] (sodium phosphate monobasic 100 mM, 0.2 M arginine, Batches #A-#E). The “Solubility of Process 2 protein, Arginine Sulfate vs Arginine Phosphate” value in series [5] (first formulation line: 50 mM sodium phosphate monobasic and 0.15 M Arginine at pH 7) was 4400 µg/mL and 2300 µg/mL; in series [5] (second formulation line: 50 mM sodium phosphate monobasic and 0.15 M Arginine at pH 7) it was 6500 µg/mL and 5200 µg/mL. Further, the Turbidity in series [6] (Polysorbate added during ultrafiltration/diafiltration: No, 13.0 mg/mL) is 4.6 NTU; in series [6] (Polysorbate added during ultrafiltration/diafiltration: Yes, 12.5 mg/mL), 20.9 NTU.

Take “aFGF: acidic FGF, a factor known to interact with all of the FGFRs under analysis”: the “effect of soluble receptor reagents on induction of DNA synthesis by control factor” value in series [4] is “inhibit the induction of DNA synthesis”.

Source of the values: patent US20050164929A1, “Methods of preventing and treating inflammatory bowel disease” (LUPINE LOGIC, INC., priority 2000, published 2005).
